Experiment [1] has as its target BRPF2 bromodomain F648A mutant (UniProt O95696). The experiment in a line: pull-down.
Experiment [2] deals with BRPF2 bromodomain, wild-type, N-terminal His6-tagged (UniProt O95696). The experiment is described as follows: pull-down.
Experiment [3] has the same target. The experiment is described as follows: ITC.

Chain of BRPF2 bromodomain, wild-type, N-terminal His6-tagged (O95696 556-688): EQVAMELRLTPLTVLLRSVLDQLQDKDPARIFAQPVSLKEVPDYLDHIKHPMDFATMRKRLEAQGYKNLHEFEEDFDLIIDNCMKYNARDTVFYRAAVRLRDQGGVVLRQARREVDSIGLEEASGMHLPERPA
Chain of BRPF2 bromodomain F648A mutant (O95696 556-688 F648A): as the sequence (O95696 556-688) above, with F93A counted along it

Turning to “endogenous hyperacetylated histone H4 bearing the K5ac mark (from UniProt P62805 1-103) (natural protein)”, the fold reduction of binding against the wild type in experiment [1] amounted to 1.5 fold. In addition, the fold reduction of binding with BAY-299 against without inhibitor in experiment [2] is 3 fold. “histone H2AK5ac (1-12) peptide (from UniProt P0C0S8 2-13)”: in experiment [3], the Kd (as a rule, the free concentration of one partner at which half of the binding sites on the other are occupied at equilibrium, for simple one-to-one binding) stood at 55.2 µM. For “histone H4Kac4 (H4K5/8/12/16) (1-20) peptide (from UniProt P62805 2-21)”, the Kd in experiment [3] worked out at 12.2 µM.

The values above are taken from paper doi:10.1101/2022.02.20.481182.
